# T1: human PRLR construct with an HA tag on HEK293/hPRLR cells (human, UniProt P16471 25-622)
# T1 sequence: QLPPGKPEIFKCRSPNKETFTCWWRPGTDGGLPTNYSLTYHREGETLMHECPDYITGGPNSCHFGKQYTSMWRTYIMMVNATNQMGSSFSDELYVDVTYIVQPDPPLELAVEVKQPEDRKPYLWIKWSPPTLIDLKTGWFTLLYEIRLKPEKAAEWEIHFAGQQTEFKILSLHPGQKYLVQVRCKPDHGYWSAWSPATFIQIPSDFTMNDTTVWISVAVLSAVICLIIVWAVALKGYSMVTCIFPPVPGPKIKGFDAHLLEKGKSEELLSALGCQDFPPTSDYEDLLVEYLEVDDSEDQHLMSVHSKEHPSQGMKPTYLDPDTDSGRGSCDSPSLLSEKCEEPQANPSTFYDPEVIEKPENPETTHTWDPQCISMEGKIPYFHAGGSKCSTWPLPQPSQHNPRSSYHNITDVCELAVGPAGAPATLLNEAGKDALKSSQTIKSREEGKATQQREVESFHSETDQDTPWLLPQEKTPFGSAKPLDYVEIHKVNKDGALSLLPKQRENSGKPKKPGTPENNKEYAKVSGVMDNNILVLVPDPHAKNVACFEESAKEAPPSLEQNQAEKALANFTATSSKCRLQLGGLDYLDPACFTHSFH
# T2: mouse PRLR construct with an HA tag on HEK293/mPRLR cells (mouse, UniProt Q08501 20-608)
# T2 construct: whole, on cells; stably transfected into HEK293
# T2 sequence (looked up): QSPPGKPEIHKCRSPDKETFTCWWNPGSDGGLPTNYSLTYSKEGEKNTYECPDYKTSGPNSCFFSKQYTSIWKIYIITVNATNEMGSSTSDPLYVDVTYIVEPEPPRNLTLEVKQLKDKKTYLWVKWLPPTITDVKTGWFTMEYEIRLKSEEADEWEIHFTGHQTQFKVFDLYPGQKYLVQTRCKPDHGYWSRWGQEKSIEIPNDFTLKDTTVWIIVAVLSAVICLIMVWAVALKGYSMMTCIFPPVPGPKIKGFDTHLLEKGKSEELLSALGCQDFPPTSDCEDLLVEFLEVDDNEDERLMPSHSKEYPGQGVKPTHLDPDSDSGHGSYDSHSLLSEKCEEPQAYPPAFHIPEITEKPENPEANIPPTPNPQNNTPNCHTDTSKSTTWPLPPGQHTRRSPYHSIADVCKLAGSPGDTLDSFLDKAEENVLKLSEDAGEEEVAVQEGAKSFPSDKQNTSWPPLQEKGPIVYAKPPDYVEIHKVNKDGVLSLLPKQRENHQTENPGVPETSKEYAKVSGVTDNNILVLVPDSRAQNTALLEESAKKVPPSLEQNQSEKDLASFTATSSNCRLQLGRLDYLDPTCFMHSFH
# T3: mfPRLR.mmh (soluble monomeric macaca fascicularis PRLR) (macaca fascicularis)
# T3 construct: soluble monomeric PRLR protein; also called macaca fascicularis (mf) PRLR.mmh; monkey PRLR
# T3 chain: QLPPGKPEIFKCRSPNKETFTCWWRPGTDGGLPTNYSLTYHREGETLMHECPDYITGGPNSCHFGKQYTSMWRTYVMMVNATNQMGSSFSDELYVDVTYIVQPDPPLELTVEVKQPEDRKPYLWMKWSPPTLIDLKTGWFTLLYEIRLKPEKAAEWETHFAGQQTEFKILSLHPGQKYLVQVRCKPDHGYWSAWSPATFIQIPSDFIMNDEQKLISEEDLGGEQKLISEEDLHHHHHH
# Experiments:
# [1] = biological target: T1, human PRLR construct with an HA tag on …; assay: FACS on HEK293/hPRLR cells
# [2] = biological target: T2, mouse PRLR construct with an HA tag on …; assay: FACS on HEK293/mPRLR cells
# [3] = biological target: T3, mfPRLR.mmh (soluble monomeric macaca …); assay: SPR (Biacore), antibody capture, 37 C
# Experimental: Measurements were conducted on a T200 Biacore instrument. Kinetic association (kₐ) and dissociation (kd) rate constants were determined by processing and fitting the data to a 1:1 binding model using Scrubber 2.0 curve fitting software.
Binder,FACS Cell Binding (Fold Above Background) [1] [fold],FACS Cell Binding (Fold Above Background) [2] [fold],Kd [3] [nM],T 1/2 [3] [min],koff [3] [s⁻¹],kon [3] [M⁻¹ s⁻¹]
"H1H6793P (antibody, human IgG1, V domains shown, human IgG1 Fc (H1H)) VH: EVQLVESGGGLVQPGGSLRLSCAASGFSFSIYAMSWFRQAPGKGLEWVSAINGRGDGTHYADSVKGRFTISRDNSKTTLYLQMSSLRAEDTAVYYCAKPVMSTNGFDIWGQGTMVTVSS VL: DIQMTQSPSTLSASVGDRVTITCRASQSISSWLAWYQLKPGKAPKLLIYKASNLESGVPSRFSGSGSGTEFTLTISSLQPDDFATYYCQQYNIYWTFGQGTKVEIK",2,2,4.59,11,0.00107,233000
"H1H6803P (antibody, human IgG1, V domains shown, human IgG1 Fc (H1H)) VH: EVQLVESGGGVVRPGGSLRLSCAASGFKFDDYGMTWVRHVPGKGLEWVSGINWNGGRTGYTDSVKGRFTISRDNAKNSLYLQMNSLRAEDTALYHCAGARRDAFDIWGQGTMVTVSS VL: DIQMTQSPSSLSASIGDRVTITCRASQNIIKYLNWYQQNAGKAPKLLIYTASSLQSGVPSRFSGSGSGTDFTLTISSLQPEDFATYYCQQSSSSPYTFGQGTKLEIK",39,1,7.28,18,0.000636,87300
"H1H6800P (antibody, human IgG1, V domains shown, human IgG1 Fc (H1H)) VH: EVQLVESGGGLVQPGRSLRLSCAASGFTFDGYAMHWVRQGPGKGLEWVSGISWYSDTLGYADSVKGRFTISRDNAKNSLYLQMNSLRTEDTAFYYCAKISSSGWAFDYWGQGTLVTVSS VL: EIVLTQSPGTLSLSPGERATLSCRASHSVSSAYLAWYQQKPGQTPRLLIYGTSSRATGIPDRFSGSGSGTDFTLTISRLEPEDFAVYYCQQYGSSPLFTFGPGTKVDIK",35,1,2.48,11,0.00109,439000
"H1H6765P (antibody, human IgG1, V domains shown, human IgG1 Fc (H1H)) VH: EVQLVESGGGVVRPGGSLRLSCVGSGFSFDDHGMNWVRQGPGKGLEWVSGFNWNGGSTNYAESVKGRFTISRDNARNSLFLQMNSLRAEDTALYYCVRGRSGWFNDAFDVWGPGTMVTVSS VL: EIVLTQSPGTLSLSPGERATLSCRASQTINSNYLAWYRQKPGQTPRLLIYGTSSRATGIPDRFSGSGSGTDFSLTISRLEPEDFAVFYCQQYAGLPTFGPGTKVDIK",38,1,0.0504,215,5.37e-05,1.06e+06
"H1H6762P (antibody, human IgG1, V domains shown, human IgG1 Fc (H1H)) VH: QVQLVESGGGVVQPGRSLRLSCAASGFTFSHYGMVWVRQPPGKGLEWVALISFDGTTKYYADSVKGRFTISRDNSKNTLYLQMNSLRAEDTAVYFCVGAIAAAAFDLWGRGTLVTVSS VL: EIVMTQSPATLSVSPGERATLSCRASQSVSSDLAWYQQKPGQAPRLLIYSASARATGIPARFTGSGSGTDFTLTISSLQSEDFAVYYCQQYNNWPMYTFGQGTKLEIK",36,2,0.823,21,0.000558,679000
"H1H6975N (antibody, human IgG1, V domains shown, also called H2M6975N) VH: EVHLVESGGGLVQPGGSLRLSCAASGFTFSSYEMNWVRQTPGKGLEWISHISSRSVIIYYADSVKGRFTISRDNAKNSLFLQMNSLRAEDTAVYFCAGITIFGIPEYWGQGTLVTVSS VL: EIVLTQSPATLSLSPGERATLSCRASQSVSSYFAWYQQKPGQAPRLLIYDASSRATGIPTRFSGSGSGTDFTLTISSLEPEDFAVYYCQQRSSWPITFGQGTRLEIK",38,1,2.27,36.4,0.000317,140000
